{"source": "patent US9120851B2", "about": "“Human antibodies to human angiopoietin-like protein 4” (Regeneron Pharmaceuticals, Inc., priority 2009, dated 2015)", "molecules": {"B1": {"name": "H4H268P2: IgG4 version of H1H268P with a single amino acid substitution in framework region 1, HCVR/LCVR SEQ ID NOs 487/44 (antibody, V domains shown)", "VH": "QVQLQQSGAGLLKPSETLSLTCTVYGGSFSIHHWTWIRHPPGKGLEWIGEINHRGSTNYNPSLKSRVTISIDTSKNQFSLKLSAVTAADTAVYYCARGLRFLDWLSSYFDYWGQGTLVTVSS", "VL": "DIQMTQSPSSLSASVGDRVTITCRASQGISDYLAWYQQKPGKVPNLLIYAASALQSGVPSRFSGSGSGTDFTLTISSLQPEDVATYYCQNYNTAPLTFGGGTKVEIK", "modifications": "IgG4 constant region"}}, "key": {"[1]": {"tested_on": "humanized ANGPTL4×ApoE null mice", "assay": "Serum TG levels in humanized ANGPTL4 x ApoE null mice", "format": "in vivo, mouse", "description": "The effect of H4H268P2 on circulating TG levels was further studied in humanized ANGPTL4 mice crossed to ApoE null mice. The ApoE null mouse model is known as a highly atherogenic and hyperlipidemic model with the majority of cholesterol and TG circulating in VLDL particles due to impaired VLDL remnant clearance. Humanized ANGPTL4×ApoE null mice were pre-bled 7 days before the experiment and put into 2 groups of six mice each. Antibodies H4H268P2 and Control Ab were administered at 10 mg/kg by subcutaneous injection. Mice were bled after 4 hours of fasting on days 1, 4, 7, 11 and 17 after antibody injection and TG levels were determined in the serum by ADVIA® 1800 Chemistry System (Siemens). TG reductions shown in FIG. 4 are expressed as a percent of TG levels compared to Control Ab."}, "humanized ANGPTL4 mice": {"tested_on": "humanized ANGPTL4 mice", "assay": "Serum TG, H4H268P2 and fenofibrate alone or in combination", "format": "in vivo, mouse", "settings": "day 7; H4H268P2 10 mg/kg s.c. day 0; fenofibrate 0.05% (w/w) in chow", "description": "The effects of the anti-ANGPTL4 antibody H4H268P2 and TG-reducing drug fenofibrate, each alone or in combination, on serum TG levels were evaluated in humanized ANGPTL4 mice. The mice were pre-bled 7 days before the experiment after 4 hours of fasting and put into 4 groups of six mice each. Groups 2 and 4 were administered with H4H268P2 at 10 mg/kg by subcutaneous injection on day 0 and groups 1 (control group) and 2 were placed on regular chow diet. Groups 3 and 4 received chow diet supplemented with 0.05% (w/w) of fenofibrate (the dosage level was determined experimentally in a pilot study). Serum was collected from a terminal bleed on day 7 after H4H268P2 and/or fenofibrate administration (after 4 hours of fasting) and analyzed by ADVIA® 1800 Chemistry System (Siemens)."}, "[2]": {"tested_on": "obese rhesus monkeys (Macaca mulatta)", "assay": "Phase I pilot PK/PD study in obese rhesus monkeys", "format": "in vivo, rhesus monkey (Macaca mulatta)", "description": "Phase I: In a pilot non-GLP pharmacokinetics/pharmacodynamic (PK/PD) study, H4H268P2 and H4H284P were administered as a single bolus intravenous (IV) injection, to obese rhesus monkeys (Macaca mulatta). Rhesus monkeys were selected because this species is closely related, both phylogenically and physiologically, to humans and is a species commonly used for nonclinical toxicity evaluations. Obese monkeys that had been on a high fat diet for greater than 6 months were selected because they typically display moderately elevated TG levels (i.e., mean >100 mg/dL; hyper-TG). Eight confirmed healthy, male monkeys were acclimated and assigned to the study for baseline assessment for 7 days prior to dosing. All animals received a vehicle (10 mM histidine, pH 6) IV infusion on Day −5, after which four of them received H4H268P2 and another four H4H284P at 10 mg/kg IV on day 0.\nSerum samples were collected from the baseline period through day 35 post-dosing and assessed for serum lipid levels by ADVIA® 1800 Chemistry System (Siemens). The average baseline for each animal was determined based on the samples taken on Days −7, −5 and 0. […] Thus the data analysis was done with 3 animals in each group. Percent (%) changes of serum TG levels from the baseline were determined for each animal and averaged for each Ab group."}, "[3]": {"assay": "Pharmacokinetic clearance in wild-type and hANGPTL4(+/+) mice, sandwich ELISA", "format": "in vivo, mouse", "settings": "1 mg/kg s.c.", "description": "Pharmacokinetic clearance rates of anti-hANGPTL4 antibodies H4H268P2 and H4H284P were determined in wild-type mice and in transgenic mice expressing human ANGPTL4 [hANGPTL4(+/+) mice]. The strain background for both wild-type and transgenic mice was C57BL6 (75%) and 129Sv (25%). Separate cohorts consisting of 5 mice each of either wild-type or hANGPTL4(+/+) mice received subcutaneously (s.c.) 1 mg/kg of H4H268P2, H4H284P, or an isotype-matched (hIgG4) control with irrelevant specificity. Blood samples were collected at 0 hour, 6 hours, 1 day, 2 days, 3 days, 4 days, 7 days, 10 days, and 15 days, 22 days, and 30 days after the injection. Serum levels of human antibodies were determined by a sandwich ELISA. Briefly, a goat polyclonal anti-human IgG (Fc-specific) capture antibody (Jackson ImmunoResearch, PA) was coated in 96-well plates at a concentration of 1 μg/mL and incubated overnight at 4° C. After the plates were blocked with BSA, serum samples in a six-point serial dilution and reference standards of the respective antibody in a twelve-point serial dilution were added to the plate and incubated for one hour at room temperature. After washing with a suitable washing buffer, captured human antibodies were detected using the same goat polyclonal anti-human IgG (Fc-specific) antibody conjugated with horse radish peroxidase (HRP) (Jackson ImmunoResearch, PA) and developed by standard colorimetric response using tetramethylbenzidine (TMB) substrate, measuring absorbance at 450 nm in a plate reader. Concentrations of human antibodies in serum were determined using the reference standard curve generated for the same sample plate."}, "[4]": {"tested_on": "obese rhesus monkeys (Macaca mulatta)", "assay": "Phase II pilot PK/PD study in obese rhesus monkeys", "format": "in vivo, rhesus monkey (Macaca mulatta)", "settings": "10 mg/kg IV", "description": "Phase II: In the second non-GLP pharmacokinetics/pharmacodynamic (PK/PD) study only H4H268P2 was administered as a single bolus intravenous (IV) injection to eight obese rhesus monkeys (Macaca mulatta). The step of pre-dosing vehicle injection was omitted in this study. Three baseline assessments were taken at days −7, −3 and 0 of the study and all eight monkeys received H4H268P2 at 10 mg/kg by IV on day 0. Serum samples were collected from the baseline period through day 35 post-dosing and assessed for serum lipid levels by ADVIA® 1800 Chemistry System (Siemens). Animals were grouped for data analysis according to average baseline TG levels so as to prospectively predict the effect: A. TG<150 mg/dL (n=3); B. 150 mg/dL<TG<500 mg/dL (n=4); and C. TG>1000 mg/dL (n=1)."}, "[5]": {"settings": "animals with baseline 150 mg/dL<TG<500 mg/dL"}}, "data": [{"molecule": "B1", "values": [{"measurement": "TG reduction compared to Control Ab", "setting": "[1]; all 17 days, 10 mg/kg s.c.", "value": "more than 42%"}, {"measurement": "greatest TG reduction compared to Control Ab", "setting": "[1]; day 7, 10 mg/kg s.c.", "value": "~50", "unit": "%"}, {"measurement": "TG levels reduced (mean) compared to control group on chow diet", "setting": "humanized ANGPTL4 mice", "value": "~40", "unit": "%"}, {"measurement": "additional lipids, such as LDL-C and HDL-C, in words", "setting": "[2]; 10 mg/kg IV", "value": "Moderate effects"}, {"measurement": "total-C, in words", "setting": "[2]; 10 mg/kg IV", "value": "unchanged"}, {"measurement": "injection site reactions or other adverse effects", "setting": "[2]; 10 mg/kg IV, any time point after infusion", "value": "No injection site reactions or other adverse effects were observed"}, {"measurement": "maximal reduction of serum TG from baseline", "setting": "[2]; day 4 post-dosing, 10 mg/kg IV, three mildly hyper-TG animals", "value": 57, "unit": "%"}, {"measurement": "fasting TG's or any other lipid parameters, in words", "setting": "[2]; single obese animal with low TG levels, 10 mg/kg IV", "value": "did not yield any significant effect"}, {"measurement": "mean serum TG levels", "setting": "[2]; until approximately Day 25, 10 mg/kg IV, three mildly hyper-TG animals", "value": "≤ 100", "unit": "mg/dL"}, {"measurement": "Cmax", "setting": "[3]; Wild-type mice", "value": 18400, "unit": "ng/mL"}, {"measurement": "Cmax", "setting": "[3]; hANGPTL4(+/+) mice", "value": 13300, "unit": "ng/mL"}, {"measurement": "AUC", "setting": "[3]; hANGPTL4(+/+) mice, over the 30-day period", "value": 37000, "unit": "ng·h/mL"}, {"measurement": "HDL-C, in words", "setting": "[4]; [5]", "value": "increased"}, {"measurement": "LDL-C or Total-C, in words", "setting": "[4]; [5]", "value": "no effect"}, {"measurement": "decrease in TG levels from baseline", "setting": "[4]; [5]", "value": "50-68%"}, {"measurement": "response of fasting TG, in words", "setting": "[4]; animals with baseline TG<150 mg/dL (normal TG levels)", "value": "largely unresponsive"}, {"measurement": "TG level, in words", "setting": "[4]; individual animal with baseline TG >1000 mg/dL", "value": "dramatic and rapid drop in TG level"}]}]}
